Results: article PMC11565642, “ATP-Triggered Fe(CN)2CO Synthon Transfer from the Maturase HypCD to the Active Site of Apo-[NiFe]-Hydrogenase” (Journal of the American Chemical Society, 2024)

Legend:
[1] = biological target: T1, HypD from Escherichia coli (Escherichia coli, UniProt P24192 1-373); test: pull-down; Strep-Tactin affinity chromatography by the Strep-tag II on HypC from soluble extracts of aerobically cultivated E. coli co-producing HypC_(Strep) and HypD (apo: pTHypDC_(Strep); holo: pTHypDEFC_(Strep)); 4 °C; SDS-PAGE of the isolated complexes; settings: partners not purified
T1 construct: HypD, [4Fe-4S] cluster-containing hydrogenase maturation factor, Escherichia coli; Carries a [4Fe-4S] cluster; No tag is named for HypD in the complexes; also called EcHypD; HypD part of HypCS-D and HypCH-D
T1 sequence (looked up): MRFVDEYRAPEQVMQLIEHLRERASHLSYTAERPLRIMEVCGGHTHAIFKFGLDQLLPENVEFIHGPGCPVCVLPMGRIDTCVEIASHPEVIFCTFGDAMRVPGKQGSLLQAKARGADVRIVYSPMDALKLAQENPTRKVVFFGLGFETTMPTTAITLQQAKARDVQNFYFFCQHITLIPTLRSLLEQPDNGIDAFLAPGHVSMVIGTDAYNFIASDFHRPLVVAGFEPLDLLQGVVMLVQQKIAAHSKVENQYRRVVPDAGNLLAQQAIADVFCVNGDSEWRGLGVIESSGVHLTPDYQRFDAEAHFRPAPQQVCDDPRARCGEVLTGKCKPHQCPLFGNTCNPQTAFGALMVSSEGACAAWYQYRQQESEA

[2] = biological target: the molecule itself; test: SEC; holo-HypCS-D after Strep-Tactin affinity chromatography, Superdex 200 Increase 10/300 GL; oligomers separated from the HypCD complex

B1: HypC_(Strep) (HypC from Escherichia coli with Strep-tag II C-terminally fused) (natural protein, UniProt P0AAM3 1-90, looked up)
chain: MCIGVPGQIRTIDGNQAKVDVCGIQRDVDLTLVGSCDENGQPRVGQWVLVHVGFAMSVINEAEARDTLDALQNMFDVEPDVGALLYGEEK
notes: HypC, hydrogenase maturation factor, Escherichia coli; residue numbers count with Met1 as 1; also called EcHypC; HypC part of apo-HypCS-D and holo-HypCS-D; source: holo form additionally by size-exclusion chromatography; not shown: Strep-tag II, C-terminal, kept
binding result [1]: binds
binding result [2]: binds
